Drawing on publication PMC4462073, “Insights into the evolution of enzyme substrate promiscuity after the discovery of (βα)8 isomerase evolutionary intermediates from a diverse metagenome” (BMC Evolutionary Biology, 2015), this text covers Km, kcat and kcat/Km for 1 protein.

Usually Km stands for the substrate concentration at which the rate is half of its maximum. What is called kcat is the number of substrate molecules converted per active site and unit of time at saturation. By kcat/Km is commonly meant the turnover number divided by the Michaelis constant.

Substrate in the data set: NC(=O)c1ncn([C@@H]2O[C@H](COP(=O)(O)O)[C@@H](O)[C@H]2O)c1N=CN[C@@H]1O[C@H](COP(=O)(O)O)[C@@H](O)[C@H]1O
Put plainly: purified protein. Type of data set: biochemical, Acidimicrobium ferrooxidans.

B1: HisA_Afer (Acidimicrobium ferrooxidans DSM 10331) (protein)
chain: MELVVAVDLLDGEAVRLRQGRFDAPRRFGDPRRYVEGALDAGARWFHVVDLDRARTPGDRRNADMVGDLIALVREAGGSVEVGGGVRTARDIAELLETGASRVVLGTALVEETLDELDPEHLVAALDYRRGDEGALEVVVSAWERSGGRRLLEASARLFARGVRTQLLTDVGRDGMASGPDLGTYQGLCEVVPVEVIASGGVASADDLAKLAAIRGARGAVWGAVVGTALLDGSLGFDEALSACRA
notes: codon-optimised synthetic gene in pET22b (NdeI/HindIII), expressed in E. coli, purified
Take B1: the Michaelis-Menten constant (Km) worked out at 1.1 ± 0.2 µM, the catalytic constant (kcat) amounted to 0.05 ± 0.001 s⁻¹ and the catalytic efficiency (kcat/Km) was 45000 M⁻¹ s⁻¹.
